Assay: soluble fraction after stress (log2 fold change); higher = more stays soluble; pooled small domains, quantitative proteomics
Conditions: stress: pH 4
Outline: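 Pooled custom libraries of small protein domains were stressed at pH 4 and then measured by high-throughput quantitative proteomics. The fold change in the amount of each domain that stays soluble after the acid stress serves as a measure of aggregation propensity. Fold changes are given on a log2 scale, and higher values mean more of the domain stayed soluble.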

Row | Sequence | soluble fraction (log2)
1 | HMGHLTWTVTGIGHERRARTVAEQMSSVFGVLEARASSAGTVYLEFEREKIDEGGLEASLKRMGVTRVV | -2.05
2 | HMAKRPRFEDVIKEINTEIQKRKGKWNLTILSWMDFDDVAQVIRIHIYRKWHLYDPSKPLGPWLNR | 0.322
3 | HMPTMEQTYIGRTMIAEEDMGKNSKIKVSGIYWTAYNKGRVIKKGEEYKITGIEGNKLIVSSK | 0.179
4 | HMHPDALTEREREVLSLLADGLSNREIAARLVLALGTVKWYISVIYSKLGVTRRTQAIARARELHLV | -0.41
5 | HMRMSPRERKIYQFIENHPGTKSGEMAEKLGIPLPTIKRLLSDMVASKLLQKHGTGAGTNYSIEE | ≥ 0.43
6 | HMQLPDLDEIRQMRKRLDLSQRELAALAGVSQSLIAKIEKGSIDPSYDNVRKIFNAFENILKKRALE | -0.495
7 | HMNPTLPYGFAKRHGVILLEAGEVAVVGLREGADPAALIETRRALGRPLRVEPLDQATFDRRLSQVYA | -0.15
8 | HMSLLLTPREASVWASEYLGKKVTSNNIIYLLNYGKIANHSTDLKENLIDKNELKIYYDSTIKSQKH | 0.00309
9 | HMANPMFAEIKKVQKQLNEMGYQAGPADGLWGNKTENAVKLLLSDNNLKWDGTFDQNEIKIIEEIFLSND | -0.257
10 | HMSSSDYDVYNKAINLMLNLLKEPKSIEEVTASLNITKSQAITWINRALNEGKIIKTNRPVRYVVNN | 0.0142
11 | HMTVVSVDDQASASSEAIRTKVAGDSAARMSVDAGGKITWGAGSASGDVTLYRSAANTLKTDDTLVAT | 0.109
12 | HMGEILYSGVLKGGDGPEATKLALEKFLGEANTQVAGRIGVQPETQVIWLSREAVDSAASTLSQHKGNMYV | -0.0574
13 | HMAEGPYSGKKVEKYPGGMEKRETMYSEGKLTRVTEFHQSGQKKMEVKVDANGQWKRLYWDNNGNPT | -0.086
14 | HMSDPTDRLVLEAALKALGEEERQVVLLHAASGLKHREIARDLGLPLSTVLSRYSRALKKLQRYLTEEGVH | -0.461
15 | HMTSPNPLIRSTTPGLETNKKGGIIVDENEMSTRENVFAGGDAVTGAATVILAMGAGKKAAAAIDAKLQN | 0.22
16 | HMIQLKEHDVVRLRETIVENDEKIPAGTRGVVLSVYDGGRAFAVEVADDRAASAIITAFRDQLEVY | -0.0481
17 | HMPSQEQSDKNAAMAFLPVIVKNALNGKGLKISDDWKAAVNTALAQYPLVNKFFNADSPEVTELVMGL | 0.0187
18 | HMDAMLGEALRLIRVYHDLKQKQAAERLEVSTSYLSEIERGLKTPTLDIIQRYATVFDMPVSSIMFFSENL | -1.19
19 | HMEKNILPDTSPEKQYEFATSFLKVGDYSTAERAFREFVINNSEHKLAGNAQYWYAETFRIRQ | 0.148
20 | HMDSILSIVGGEESYKALLAWAENNISQQELQQLETILKSGNVPAIKRVLVTLMNRFNQAQS | -0.547
21 | HMLLRVGGLVKDGSVRTDNDLGIKFIIEDNLAEVSVLYNGILPDLFREGQGVIAEGKFIDNIFIANEIVA | -1.13
22 | HMAITYETKVISGVNLRSAPSTSASVYQLIPKGENIHVVQKVNDYWLKVQTKDGKTGYISASSKYTNYIG | 0.0502
23 | HMQVPWYQRLKEKRLEYGVSQNKLATHIGISRQYMSEIETGKVTPSDSLQATLFDILEQFNPDA | -0.74
24 | HMAVQPMDQVKAWLAEDNPADIKLLVPVLQKLDLLDYEQVRGEVADRAGVRKSLLDEAVKGN | -0.119
25 | HMFTEEQMDWLRLIKDHIVASLSILPEDLELTPFDRKGGLLGFYDAFGDEYEKILQEMNEELVA | -0.43
26 | HMHREITGSLAERNGRYTAILNLYDEDGKRRQKSIALGIPVKGNKRKAQAQLEELKRAYSLGLPQ | 0.051

Row | Sequence | soluble fraction (log2)
27 | HMTILTSSQRKALISKMIRQGGVESQSHLVKLLAREGVKVTQATASRDLEDLGATRVRDANGEFQYVIP | 0.0156
28 | HMAAEEAFPGGRIVQNAEENRLQILFDEIPGEDVRAALKSHGFRWSPKNKAWQRQLTQNAEYDARRILGI | -0.033
29 | HMGIRYQLADDVTDEQITAMTGKKAKIAAAIKAAGSAVSKMNVAGEMGYDKQNPINKDFMELVDAGIIVPS | -0.121
30 | HMSLNHDIWVQELKEKRSGYGISQSRLAIAAGMTRQYLSDIETGKVLPSAERKAAITEALERFNPD | -0.213
31 | HMTMEFGEFLAKLRKERGYYQKEVAAYLNVTVATISNYEKNVHAPDLDTLVKLADFYDVSTDYLLQRT | -1.46
32 | HMEPVIELGDRTLPIEITRHRRARRLTLRLAADGSAVRITLPHWARSAEATAFAHARRDWLAAQLAK | 0.108
33 | HMSVSTGTITGSVVNLREEPNTSSKVLDKLPKDTVVYVLSASGEWYNVSYGDKTGWVYGEYLA | -0.478
34 | HMAATGPLTPREAEIARLAAGHLSNRQIAEQLVVSERTVENHLYRIFIKLAVTGRDDLAAALAATEQ | -1.17
35 | HMTYVSVSNYIGTNVDKAKGELESQGLVVLLEEQKTEDKSQDGMVLKQTIEGGTKVSSGSRITLIYGRYT | -0.117
36 | HMGPTGGLTPHIAIADKRASEAIEFYKQAFGAVEQVRMPAEDGVRLMHAHLLVNGSSLMMHDDFPEYSGQ | 0.0087
37 | HMNRKILVLLAGKEQITDNVSVMQSIHRYAFINTATINKAQHEILIEKEEIRQEALTLIHEFLK | 0.0276
38 | HMADAGQTTAATELKQAPNAGSATISQLSAGQTLQIGTRQGAWYQVKTPQGEGWVRMLSVRLQ | 0.0688
39 | HMRKEDYLPIGSVINMDDRKFRVDSVDFDKDKVSLQDMALADARMPIFWEEPLTVVRELYEQQDE | -0.899
40 | HMINYSQKQLIAIQDELSKRFQALENESTKNNVTGFGVGLHYIDIDLIVNTPEKQKEFREKIMDSPAFRFN | 0.106
41 | HMENYTYKYATSANVNIREEPNTDSTILGKTLLNTEFQVVEDVDGWSKITTEAGYAYIKSEYLSDTE | -0.392
42 | HMAKNSVLTIELWNSTAFKWRKDTEPYSESMSVDFNRSVRLTDGISIMFSKFGFVPGIQYLIPLQT | -0.331
43 | HMQSEESTHIGERMLNQALRAMHVEPSAVKEKQWEKLIRDYSVKNKQDILTDIGLGKRQSVMVAHQLLAI | -0.028
44 | HMKNIINLVIDGELHGKRIDAVIAQKNDSLSRTRIKNLVINGNLSINDEIVSDPSKKIYKDDKVSLTIPLP | -0.085
45 | HMFNTWLGEIRSNTGANVRSGPDASAAIVDARPNETVVRVIGQSGNWLQIGDKQFVAQSLVAP | -0.0317
46 | HMIKKLDIEPIIKSVVDDFNNIYKLKRGITISYLNDGKNKYFINGIENRIEQIIANLLDNSISFSEDNKDV | 0.122
47 | HMRKTIQDFLSSNKVDIAKLLTLALEKTKEDLYKNLSYNLTNKELEKLKLLIKKREQGIPFAYLS | 0.0954
48 | HMQQVIQSGQKVQLMATDGSFQVSAEGVALKNGSVGEVIGVRMPSGRVISGVVSASGAVEVR | 0.0769
49 | HMKETIIPELLQNELDKNSELNDKFNTFSPYKQREFIEYIITAKQEKTQISRLQKVILMILEGRGLNN | -0.491
50 | HMDAIIVPSVLKMKPFEAEEKLSALGLRMKINDTVYIDNMKPGVIVEQSPTAEEDVKTDRVIYVIVNA | -0.139
51 | HMKPTVKGHFTRKESNVGGYADVRGWGVAGTPSMMANQSKDTRRFSTLIVPGRSVNVHPSPTKEAIIWWQS | -0.138
52 | HMISINVIGEMISGSYGNTPFSRTYEKDIYEQMVKLSDDADQAQTVEEYNKILAEFSLLTTEDLK | -1.73

Row | Sequence | soluble fraction (log2)
53 | HMGVGERIKARRKEIGLSAEQVAKELGVSPATVYRYESNDIMNMRIDKLEPIAKALHTTPAYLMGWE | 0.155
54 | HMPLPLYVQIKESLRGQIFDGTYGEHERLPSENDLMSSFGVSRITVRQALSDLEKEELIFKVPGKGAFVSR | -1.28
55 | HMKDEHYLYIKARVDNGDYPHLSELKSAEEIELVMPKLLQDGIVEFNKETGEYTIGEDVKAEIERL | -1.02
56 | HMINKDNLIEEILKFINTKIADISSNNPLFDIVAKPYISKVVTNNVSKLDKALSLIADDKGMVDADGLLT | -0.295
57 | HMEFTKSPLDEIAGVGPARKRALLAAFGTAKAVSQAALADLEKTPGVNAATARLVYAHFHEK | 0.22
58 | HMRRGFGYVRKLPSGRWQASFVGPDLARHSAPHTFETKGDAEGWLGRRQADVVAGEWRPPVP | 0.321
59 | HMAYSEEDRRRVREELLTTALKLMSTQGIQHTTVEQVYRSVGISRSFFYAFFPTKEDLIVEAL | -0.0412
60 | HMDLDPNKPAIPIAYPRVLLNIMAEKGFSRTEVLAGSGLADSVFDKPDHRITPAQFLFILMNSFYLS | -0.631
61 | HMTRHIQVNDSIASTPIEDVYFSTRTYNALLNNGISVIGDLSKYTHDDLYASFQGLGRAGVLEIEAYLRQD | -1.32
62 | HMIERVLRTEEHIEAFAGEEVEAKLFAPIDGKKTLRGILGGIEDGRVILTVGDTEYRIEHAKISRLTTVFD | -0.712
63 | HMRMQRYYLTDMSEKGREALPGVLDEMGYAGRYTMSDNSIAINSNMIVLSKAIKRAEDIAHNE | -0.148
64 | HMENEIVMPVQINGKKRGDLTIARDADQASIQKAVLELDFVKAALNGGSPKKVIVVPQRIVNVV | 0.127
65 | HMTRVDKLQTWLSLPREQRDWDEGALMLLQLTGNKIMYRNLSVNPEGKANFIEGKLQQYLEFRLA | -1.16
66 | HMPALPGNELLRNLMLEHGLKQVDLAEIGSQGVVSEILSGKRRINRRHADLLARRFSLPAELFSR | -0.0865
67 | HMQPASPELNNQEKKVLQALPENEVIHIDELSDKIQIPVGELLTVLLSLEMKETVIQEPGKFFRRR | -0.886
68 | HMARRTPPPTVSELNALLRVAAPHIQRVILLGIYTGARIGPSELFSLKWDDVDLTRGVIGIRL | -0.39
69 | HMKVKEYKLVDWISTFTKNEGYGISQKAAMLLAEFLGDDLSRIANEIEKLKLLVEKGTTINDVHIEENI | -0.721
70 | HMEGTVQQDKFDAYKAKFEDAISNDLNTSMAITIIYDLLKDDMNDKTKLALINDFDKVLSLNLTTA | -1.17
71 | HMSFNTNENKNLLWELMNKHNLFKDIDNQHYQEVQKLFEEEIVFISNNNKSLDLVEQNKKFLSSIITKLNK | -1.2
72 | HMAPAPYLVKVTANKLNIRSGPGTNYKIQGAITDKGTYTIVDTQGRWGKLKSGAGWIYLNYTKK | 0.22
73 | HMKNIMRQWIELEPDQGKIRSKLYSLDRVVEETTNEVGMIKLLLEIDEKELNNLVSHNDIRLV | -0.625
74 | HMDLLVWRVADEDAGERIDKLVVDSLDDVSRTAVQQWIKDGLVTVNGKTVKPNYKAAAGDEVAVSVPEPE | -0.514
75 | HMKKILITGNSGYIGSHLSKMLENDYEVHGLDIRQPQHPVAKFYEQDINRPINIEEEYDAVIHLAALV | -0.104
76 | HMEIMELPEYVVRSGSGLDAFREKWDLWDQGLMYDLKDKRAVFPIFIDGVMIDAVGRALAGAEPKWLRYTG | -0.554

Source: the domain aggregation screens of Martell et al. (2025)
